Consider 14 molecules from PMC11196586, “Molecular insight into interactions between the Taf14, Yng1 and Sas3 subunits of the NuA3 complex” (Nature Communications, 2024).

B1: Taf14FL (full length Taf14, aa 1-244), P35189 1-244 (natural protein)
chain: MVATVKRTIRIKTQQHILPEVPPVENFPVRQWSIEIVLLDDEGKEIPATIFDKVIYHLHPTFANPNRTFTDPPFRIEEQGWGGFPLDISVFLLEKAGERKIPHDLNFLQESYEVEHVIQIPLNKPLLTEELAKSGSTEETTANTGTIGKRRTTTNTTAEPKAKRAKTGSASTVKGSVDLEKLAFGLTKLNEDDLVGVVQMVTDNKTPEMNVTNNVEEGEFIIDLYSLPEGLLKSLWDYVKKNTE
B2: Yng1EBM peptide (aa 113-124 of Yng1), Ac-EPKLLLKINLKK-NH2 (peptide)
peptide: Ac-EPKLLLKINLKK-NH2
notes: also called Yng1 peptide; source: synthetic peptide (Synpeptide)
B3: L116D Yng1EBM peptide (aa 113-124 of Yng1) (peptide, UniProt Q08465 113-124, looked up)
peptide: EPKDLLKINLKK
notes: The wild-type peptide is Ac-...-NH2; source: peptide
B4: L118D Yng1EBM peptide (aa 113-124 of Yng1) (peptide, UniProt Q08465 113-124, looked up)
peptide: EPKLLDKINLKK
notes: as for B3
B5: Taf14ET (extra-terminal domain of Taf14, aa 168-243) (domain or fragment, S. cerevisiae, UniProt P35189 168-243, looked up)
chain: GSASTVKGSVDLEKLAFGLTKLNEDDLVGVVQMVTDNKTPEMNVTNNVEEGEFIIDLYSLPEGLLKSLWDYVKKNT
notes: Taf14, S. cerevisiae, UniProt P35189, ET domain, aa 168-243; Uniformly 15N-labelled for NMR; also called ET domain of Taf14
B6: I222R Taf14ET: I222R mutant of Taf14ET (aa 168-243 of S. cerevisiae Taf14) (protein, UniProt P35189 168-243, looked up, variant I222R)
chain: B5 chain with I55R
modifications: ET domain (aa 168-243)
B7: F220R Taf14ET: F220R mutant of Taf14ET (aa 168-243 of S. cerevisiae Taf14) (protein, UniProt P35189 168-243, looked up, variant F220R)
chain: B5 chain with F53R
modifications: ET domain (aa 168-243)
B8: L224R Taf14ET: L224R mutant of Taf14ET (aa 168-243 of S. cerevisiae Taf14) (protein, UniProt P35189 168-243, looked up, variant L224R)
chain: B5 chain with L57R
modifications: ET domain (aa 168-243)
B9: Sas3EBM peptide (aa 111-122 of Sas3), Ac-SEELKVRIKYDS-NH2 (peptide)
peptide: Ac-SEELKVRIKYDS-NH2
notes: Sas3 (something about silencing 3), catalytic subunit of the yeast NuA3 complex, aa 111-122; also called Sas3 peptide; source: synthetic peptide (Synpeptide)
B10: L114D Sas3EBM peptide (aa 111-122 of Sas3) (peptide, UniProt P34218 111-122, looked up)
peptide: SEEDKVRIKYDS
notes: Sas3, yeast, aa 111-122 with L114D; The wild-type peptide is Ac-...-NH2; source: peptide

Numbering of substitutions follows the chain as printed. Numbers in names are those of the source.

Data set [1] addresses T1, Taf14ET (Saccharomyces cerevisiae, UniProt P35189).
T1 construct: Taf14ET (aa 168-243); His; made in house; host or cells: Escherichia coli Rosetta-2 (DE3) pLysS
T1 sequence (P35189 168-243): B5 chain
Briefly: NMR 1H,15N HSQC titration (chemical shift perturbations), Taf14ET. It counts as binding. The following applies: 15N-labelled Taf14ET, 298 K, increasing amounts of mutated peptide. The protocol: (§1) Nuclear magnetic resonance experiments were performed at 298 K on Varian INOVA 900 MHz (for Taf14FL) and 600 MHz (for Taf14ET and Taf14YEATS) spectrometers equipped with cryogenic probes as described. The NMR samples contained 0.05–0.2 mM uniformly ^15N-labeled Taf14 proteins in 50 mM Tris-HCl (pH 6.8–7.5), 150 mM NaCl, 0–5 mM DTT or 1x PBS (pH 6.6–7.5), supplemented with up to an additional 100 mM NaCl, 0–5 mM DTT or 0.2 mM TCEP and 8-10% D2O. Binding was characterized by monitoring chemical shift changes in ^1H,^15N HSQC spectra of the proteins induced by the addition of wild type or mutated Yng1EBM (aa 113-124), Sas3EBM (aa 111-122) and Yng1EBM-PHD (aa 100-219). NMR data were processed and analyzed using NMRPipe as previously described, with the apparent Kds being determined by a nonlinear least-squares analysis and a 1:1 stoichiometry in GraphPad Prism using the equation:2 Δδ=ΔδmaxL+P+Kd−L+P+Kd^2−4PL/2P Where [L] is the concentration of the peptide, [P] is concentration of the protein, Δδ is the observed chemical shift change, and Δδ max is the normalized chemical shift change at saturation. Normalized chemical shift changes were calculated using the equation δ=ΔδH^2+(ΔδN/5)^2 (3), where Δδ is the change in chemical shift in parts per million (ppm).

Data set [2] deals with Taf14FL-601 DNA complex. Briefly: EMSA of 601 Widom DNA with Taf14FL with or without peptide. It counts as biochemical, Saccharomyces cerevisiae. The following applies: protein preincubated with peptide at 1:2.5 molar ratio; 8% native polyacrylamide gel. The procedure:
(§2) EMSAs were performed by mixing increasing amounts of Taf14 proteins with 0.25 pmol/lane of 601 DNA in 25 mM Tris-HCl pH 7.5, 25-100 mM NaCl, 0.2 mM ethylenediaminetetraacetic acid (EDTA), 10% glycerol and 1 mM DTT in 10 µL reaction volume. The Taf14 proteins were either preincubated with Yng1EBM at a 1:2.5 molar ratio or with Yng1EBM and Sas3EBM at a 1:1:1 molar ratio for a minimum of 1 h on ice or used without peptides prior to addition of DNA. Reaction mixtures were incubated at 4 °C for 10 min (2-2.5 µl of loading dye was added to each sample) and loaded onto an 8% native polyacrylamide gel. Electrophoresis was performed in 0.5x Tris-borate-EDTA (TBE) at 80–120 V on ice. The gels were stained with SYBR Gold (Thermo Fisher Sci) and visualized by Blue LED (UltraThin LED Illuminator-GelCompany).
In general terms: Mobility shift assays separate free from complexed probe on a gel.

Data set [3] concerns Taf14ET-601 DNA complex. As to the kind of experiment: EMSA of 601 Widom DNA with Taf14ET with or without peptide. It counts as biochemical, Saccharomyces cerevisiae. Conditions: protein preincubated with peptide at 1:2.5 molar ratio; 8% native polyacrylamide gel. The procedure: as §2
Data set [4] relates to Taf14YEATS. Briefly: NMR 1H,15N HSQC titration, Taf14YEATS. It counts as binding, Saccharomyces cerevisiae. The following applies: 298 K. The procedure: as §1
The target of data set [5] is T2, Taf14FL (full length Taf14, aa 1-244) (S. cerevisiae), P35189.
T2 chain: B1 chain
Briefly: mass photometry; Taf14FL with Yng1EBM (1:1 molar ratio), final 100 nM, room temperature, 50 mM Tris pH 7.5, 150 mM NaCl, 1 mM TCEP. Conditions: remark: other sources report otherwise.

Data set [6] deals with T3, His-Taf14FL (aa 1-244) (S. cerevisiae, UniProt P35189 1-244, labeled using a His-Tag Labeling Kit RED-tris-NTA (2nd Generation)).
T3 construct: Taf14, S. cerevisiae, UniProt P35189, aa 1-244; His-tagged form used for MST; source: E. coli Rosetta-2 (DE3) pLysS, purified (Ni-NTA, SEC)
T3 sequence (looked up): B1 chain
Briefly: MST; His-tagged Taf14 labeled with RED-tris-NTA, kept at 10 nM; unlabeled peptide added stepwise; 20 mM Tris-HCl pH 7.5, 150 mM NaCl, 2.5 mM DTT or 0-0.2 mM TCEP; apparent Kd, 1:1 stoichiometry. Conditions: both partners purified.

Data set [7] has as its target B5. Briefly: other fluorescence titration; tryptophan fluorescence, 25 °C; 1 μM Taf14ET or Taf14FL, increasing peptide; 50 mM Tris-HCl pH 6.8 or 7.5, 150 mM NaCl, 1 mM DTT or 0.2 mM TCEP; excitation 295 nm; apparent Kd, 1:1 stoichiometry. The following applies: both partners purified.
For data set [8], the target named is T4, Taf14FL (full length Taf14, aa 1-244) (S. cerevisiae, UniProt P35189 1-244).
T4 construct: Taf14, S. cerevisiae, UniProt P35189, aa 1-244; uniformly 15N-labelled for NMR; also called transcription initiation factor subunit 14
T4 sequence (looked up): B1 chain
The description is as above. Conditions: both partners purified.

Data set [9] deals with the molecule itself. Briefly: crystal structure; Taf14ET co-crystallized with Yng1EBM peptide (molar ratio 1:2.5); 40% PEG 400, 0.1 M Tris pH 8.5, 0.2 M LiSO4; 1.9 Å.
Data set [10] has as its target T4, Taf14FL (full length Taf14, aa 1-244). Briefly: other fluorescence titration; tryptophan fluorescence of Taf14FL with Yng1EBM in the presence of H3K9cr peptide at a 1:10 Taf14FL:H3K9cr molar ratio; apparent Kd, 1:1 stoichiometry. The following applies: both partners purified.
Data set [11] deals with B5. Briefly: NMR titration; 1H,15N HSQC of 0.05-0.2 mM 15N-labeled Taf14 proteins, 298 K, unlabeled peptide or Yng1EBM-PHD added; Tris-HCl or PBS, pH 6.6-7.5; apparent Kd from CSPs, 1:1 stoichiometry. Conditions: both partners purified.
Data set [12] has as its target T5, Yng1_(EBM-PHD) (aa 100-219 of Yng1) (S. cerevisiae, UniProt Q08465 100-219).
T5 construct: Yng1, S. cerevisiae, UniProt Q08465, EBM coupled to the PHD finger, aa 100-219; source: E. coli Rosetta-2 (DE3) pLysS, purified
T5 sequence (looked up): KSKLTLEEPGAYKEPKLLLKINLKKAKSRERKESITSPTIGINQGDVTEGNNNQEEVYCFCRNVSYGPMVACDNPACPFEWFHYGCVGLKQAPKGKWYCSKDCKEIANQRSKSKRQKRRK
Described as above. The following applies: both partners purified.

The format of data set [13] is physicochemical, Saccharomyces cerevisiae. The text has this: The S. cerevisiae Taf14FL (aa 1-244) (UniProt code P35189), Taf14YEATS (aa 1-137), Taf14ET (aa 168-243) and Yng1EBM-PHD (aa 100-219) (UniProt code Q08465) were cloned into pGEX-6P1, pET22b or pCIOX vectors. The F220R, I222R and L224R mutants of Taf14ET were generated using QuikChange II site directed mutagenesis kit (Agilent). Sequences were confirmed by DNA sequencing. All proteins were expressed in Escherichia coli Rosetta-2 (DE3) pLysS cells grown in either Terrific Broth, Luria Broth or in minimal media supplemented with ^15NH4Cl (Sigma). Protein production was induced with 0.3 mM IPTG for 18 h at 16 °C. Bacteria were harvested by centrifugation and lysed by sonication. GST-fusion proteins were purified on glutathione agarose 4B beads (Thermo Fisher Sci). The GST-tag was cleaved with either PreScission or tobacco etch virus (TEV) protease. After cleavage, Taf14FL and Taf14YEATS retained the pGEX-6P1vector-derived residues Gly and Pro. His-fusion proteins were incubated with Ni-NTA resin (ThermoFisher), washed and eluted with a gradient of imidazole. When necessary, removal of the His-tag was completed during an overnight dialysis, while incubating the protein with ULP1 protease. […]
Nuclear magnetic resonance experiments were performed at 298 K on Varian INOVA 900 MHz (for Taf14FL) and 600 MHz (for Taf14ET and Taf14YEATS) spectrometers equipped with cryogenic probes as described. […] NMR data were processed and analyzed using NMRPipe as previously described, with the apparent Kds being determined by a nonlinear least-squares analysis and a 1:1 stoichiometry in GraphPad Prism using the equation:2 Δδ=ΔδmaxL+P+Kd−L+P+Kd^2−4PL/2P Where [L] is the concentration of the peptide, [P] is concentration of the protein, Δδ is the observed chemical shift change, and Δδ max is the normalized chemical shift change at saturation. Normalized chemical shift changes were calculated using the equation δ=ΔδH^2+(ΔδN/5)^2 (3), where Δδ is the change in chemical shift in parts per million (ppm).

As to “V116D Sas3EBM: Sas3EBM peptide with single point substitution V116D (SEELKDRIKYDS)”, in [1], the “binding of wild type Taf14ET judged by CSPs in 1H,15N HSQC spectra” value (“binding of wild type Taf14ET judged” below) is given as “abrogated binding”. Consider Ac-EPKLLLKINLKK-NH2 [Yng1EBM], for which the “effect of peptide on binding of Taf14FL to 601 DNA (EMSA)” value in [2] is “enhanced”. Further, the “effect of peptide on DNA binding activity of isolated Taf14ET (EMSA)” value in data set [3] is given as “increased”. In addition, in data set [4], the “CSPs induced in 15N-labeled Taf14YEATS” value is listed as “No CSPs”. In the case of “I118D Sas3EBM: Sas3EBM peptide with single point substitution I118D (SEELKVRDKYDS)”, in [1], the “binding of wild type Taf14ET judged” value is reported as “abrogated binding”. On to “I120D Yng1EBM: Yng1EBM peptide with I120 replaced with aspartate (EPKLLLKDNLKK)”, for which the “binding of wild type Taf14ET judged” value in [1] is reported as “almost negligible CSPs”. What is called stoichiometry N is a count of units in the complex or per binding partner. On to B1, for which the stoichiometry N in data set [5] amounted to 2.

Take B2: the Kd in [6] stood at 1200 nM; in [7], 0.6 µM; in data set [8] it was 1.1 µM; in data set [10], 900 nM. Besides, the “stoichiometry N” value in data set [9] amounted to 2. As for B3, the Kd in data set [11] is 180 µM. Regarding B4, the Kd in data set [11] was found to be 430 µM. On to B5, for which the binding result in data set [12] is recorded as “binds”. The “stoichiometry N” value in data set [9] was 2. On to B6, for which the “stability of mutated Taf14ET protein” value in data set [13] is recorded as “unstable”. Regarding B7, in [13], the “stability of mutated Taf14ET protein” value is “unstable”.

As for B8, the “stability of mutated Taf14ET protein” value in [13] was “unstable”. Turning to B9, the Kd was found to be 18 µM in data set [7] and 21 µM in data set [8].

Turning to B10, the Kd in data set [11] is 540 µM.
